{"source": "paper PMC10525234", "about": "“Antifungal Action of Arabidopsis thaliana TCP21 via Induction of Oxidative Stress and Apoptosis” (Antioxidants, 2023)", "proteins": {"B1": {"name": "Arabidopsis thaliana TCP21 (natural protein)", "chain": "not shown", "notes": "full-length protein expressed from cDNA; also called AtTCP21; recombinant AtTCP21; source: E. coli BL21(DE3), pET28a, purified (Ni-NTA, SEC)"}}, "biological_target": "the molecule itself", "experiment": "negative-stain transmission electron microscopy; purified AtTCP21 on a glow-discharged carbon-coated copper grid, negatively stained with 2% uranyl acetate; protein dialyzed against 25 mM HEPES pH 7.2, 150 mM NaCl"}
{"protein": "B1", "values": [{"measurement": "binding result", "result": "binds"}]}
